Experimental data published in the supplement of paper PMC9112550, “Optimization of the antimicrobial peptide Bac7 by deep mutational scanning” (BMC Biology, 2022).

Tested on: Escherichia coli TOP10
Assay: shrunken log2 fold change of peptide-encoding DNA abundance (4.5 h post-induction vs induction); higher = less antimicrobial activity (less host growth inhibition)
Details: time post-induction: 4.5 h; library: site-saturation at positions 5, 18, 19, 20
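Further: peptides expressed intracellularly from a pBAD plasmid library in pooled LB shake-flask culture, induced with 0.3% L-arabinose, DNA abundance read by NGS, three biological replicates, DESeq2 with apeglm shrinkage.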

| Sequence | shrunken log2 fold change |
| --- | --- |
| RRIRARPPRLPRPRPRPHHLPRP | -0.313 |
| RRIRRRPPRLPRPRPRPAENPRP | 0.0557 |
| RRIRERPPRLPRPRPRPSHIPRP | -0.25 |
| RRIRKRPPRLPRPRPRPEWAPRP | 0.604 |
| RRIRQRPPRLPRPRPRPLLRPRP | -0.0709 |
| RRIRARPPRLPRPRPRPVHCPRP | 0.0301 |
| RRIRCRPPRLPRPRPRPDIWPRP | 0.116 |
| RRIRVRPPRLPRPRPRPVYRPRP | 0.132 |
| RRIRCRPPRLPRPRPRPWPAPRP | 0.375 |
| RRIRYRPPRLPRPRPRPQIKPRP | -0.969 |
| RRIRWRPPRLPRPRPRPCAEPRP | 0.618 |
| RRIRYRPPRLPRPRPRPREAPRP | 0.469 |
| RRIRSRPPRLPRPRPRPLIIPRP | -0.678 |
| RRIRGRPPRLPRPRPRPWYSPRP | -0.471 |
| RRIRMRPPRLPRPRPRPLRSPRP | 2.47 |
| RRIRARPPRLPRPRPRPFWCPRP | 0.0247 |
| RRIRWRPPRLPRPRPRPTDHPRP | -0.307 |
| RRIRCRPPRLPRPRPRPINTPRP | -0.329 |
| RRIRCRPPRLPRPRPRPQPQPRP | 0.526 |
| RRIRIRPPRLPRPRPRPYHAPRP | -0.0781 |
| RRIRCRPPRLPRPRPRPNKWPRP | -0.00442 |
| RRIRSRPPRLPRPRPRPTFFPRP | -0.0698 |
| RRIRQRPPRLPRPRPRPGTIPRP | -0.259 |
| RRIRVRPPRLPRPRPRPYCMPRP | -0.898 |
| RRIRLRPPRLPRPRPRPFKIPRP | -0.00613 |

| Sequence | shrunken log2 fold change |
| --- | --- |
| RRIRTRPPRLPRPRPRPNMHPRP | 0.561 |
| RRIRSRPPRLPRPRPRPFFRPRP | -0.0536 |
| RRIRDRPPRLPRPRPRPWMPPRP | -0.11 |
| RRIRYRPPRLPRPRPRPYIFPRP | -0.322 |
| RRIRNRPPRLPRPRPRPNRWPRP | 0.105 |
| RRIRFRPPRLPRPRPRPASRPRP | 0.128 |
| RRIRGRPPRLPRPRPRPHSGPRP | -0.0558 |
| RRIRDRPPRLPRPRPRPPYSPRP | -0.805 |
| RRIRVRPPRLPRPRPRPMSYPRP | -0.0627 |
| RRIRPRPPRLPRPRPRPHEKPRP | -0.0384 |
| RRIRQRPPRLPRPRPRPAPEPRP | 0.228 |
| RRIRRRPPRLPRPRPRPIHNPRP | -0.329 |
| RRIRLRPPRLPRPRPRPEDTPRP | -0.00686 |
| RRIRCRPPRLPRPRPRPNDFPRP | -0.241 |
| RRIRIRPPRLPRPRPRPDNVPRP | 0.0156 |
| RRIRLRPPRLPRPRPRPAYTPRP | -0.203 |
| RRIRTRPPRLPRPRPRPDRQPRP | -0.0344 |
| RRIRIRPPRLPRPRPRPHRRPRP | -0.056 |
| RRIRYRPPRLPRPRPRPLFNPRP | -1.24 |
| RRIRVRPPRLPRPRPRPQFLPRP | 0.052 |
| RRIRTRPPRLPRPRPRPIMMPRP | -0.267 |
| RRIRPRPPRLPRPRPRPEQHPRP | 0.214 |
| RRIRQRPPRLPRPRPRPGMLPRP | 0.105 |
| RRIRMRPPRLPRPRPRPNMYPRP | 0.0412 |
| RRIRSRPPRLPRPRPRPLLTPRP | 0.085 |

| Sequence | shrunken log2 fold change |
| --- | --- |
| RRIRFRPPRLPRPRPRPHLAPRP | -0.0213 |
| RRIRGRPPRLPRPRPRPWLMPRP | 0.428 |
| RRIRDRPPRLPRPRPRPKDHPRP | 0.0158 |
| RRIRMRPPRLPRPRPRPTASPRP | 1 |
| RRIRARPPRLPRPRPRPETWPRP | 0.369 |
| RRIRHRPPRLPRPRPRPMAYPRP | -0.0524 |
| RRIRYRPPRLPRPRPRPRNTPRP | -0.503 |
| RRIRFRPPRLPRPRPRPEMVPRP | -0.143 |
| RRIRMRPPRLPRPRPRPDTLPRP | -0.122 |
| RRIRLRPPRLPRPRPRPPEMPRP | 1.71 |
| RRIRCRPPRLPRPRPRPMFLPRP | -0.847 |
| RRIRDRPPRLPRPRPRPVVTPRP | 0.689 |
| RRIRHRPPRLPRPRPRPSMDPRP | -0.828 |
| RRIRFRPPRLPRPRPRPPQDPRP | 0.303 |
| RRIRCRPPRLPRPRPRPDPFPRP | -0.187 |
| RRIRWRPPRLPRPRPRPHYTPRP | -0.638 |
| RRIRVRPPRLPRPRPRPWCPPRP | 0.0662 |
| RRIRMRPPRLPRPRPRPIVEPRP | 0.456 |
| RRIRCRPPRLPRPRPRPHDQPRP | 0.0433 |
| RRIRMRPPRLPRPRPRPMVWPRP | 1.09 |
| RRIRLRPPRLPRPRPRPSLIPRP | -0.217 |
| RRIRYRPPRLPRPRPRPRWHPRP | -0.124 |
| RRIRRRPPRLPRPRPRPAAGPRP | 0.326 |
| RRIRARPPRLPRPRPRPKQSPRP | 0.608 |
| RRIRWRPPRLPRPRPRPFPGPRP | -0.0199 |

| Sequence | shrunken log2 fold change |
| --- | --- |
| RRIRKRPPRLPRPRPRPPGKPRP | 0.756 |
| RRIRSRPPRLPRPRPRPWNNPRP | -0.627 |
| RRIRCRPPRLPRPRPRPHRCPRP | -0.128 |
| RRIRVRPPRLPRPRPRPQMTPRP | -0.0158 |
| RRIRQRPPRLPRPRPRPTIAPRP | 0.0737 |
| RRIRVRPPRLPRPRPRPSPPPRP | -0.0761 |
| RRIRTRPPRLPRPRPRPMEHPRP | 0.118 |
| RRIRTRPPRLPRPRPRPATCPRP | 2.77 |
| RRIRVRPPRLPRPRPRPNTLPRP | -0.478 |
| RRIRERPPRLPRPRPRPNIIPRP | -0.338 |
| RRIRWRPPRLPRPRPRPDYMPRP | -0.0885 |
| RRIRGRPPRLPRPRPRPWMPPRP | 0.105 |
| RRIRHRPPRLPRPRPRPGHAPRP | -0.0876 |
| RRIRSRPPRLPRPRPRPWMSPRP | 0.132 |
| RRIRCRPPRLPRPRPRPHETPRP | -0.035 |
| RRIRLRPPRLPRPRPRPSNLPRP | -0.181 |
| RRIRCRPPRLPRPRPRPIFPPRP | 0.247 |
| RRIRSRPPRLPRPRPRPAIAPRP | -0.00626 |
| RRIRYRPPRLPRPRPRPYWKPRP | -0.0135 |
| RRIRLRPPRLPRPRPRPNIVPRP | -0.00437 |
| RRIRFRPPRLPRPRPRPGYLPRP | -0.0745 |
| RRIRARPPRLPRPRPRPQHPPRP | 0.29 |
| RRIRIRPPRLPRPRPRPQRRPRP | 0.19 |
| RRIRFRPPRLPRPRPRPVRSPRP | 0.234 |
| RRIRQRPPRLPRPRPRPEFVPRP | 0.031 |

| Sequence | shrunken log2 fold change |
| --- | --- |
| RRIRFRPPRLPRPRPRPIRVPRP | 0.0245 |
| RRIRYRPPRLPRPRPRPRWQPRP | 0.033 |
| RRIRTRPPRLPRPRPRPCWRPRP | 0.156 |
| RRIRTRPPRLPRPRPRPTGYPRP | 0.000642 |
| RRIRWRPPRLPRPRPRPEDAPRP | 0.00499 |
| RRIRHRPPRLPRPRPRPNGSPRP | -0.0827 |
| RRIRERPPRLPRPRPRPMVYPRP | -0.119 |
| RRIRVRPPRLPRPRPRPYKQPRP | -0.00648 |
| RRIRTRPPRLPRPRPRPTFNPRP | -0.199 |
| RRIRDRPPRLPRPRPRPVADPRP | 0.22 |
| RRIRVRPPRLPRPRPRPRLMPRP | -0.0256 |
| RRIRQRPPRLPRPRPRPWPLPRP | -0.0625 |
| RRIRCRPPRLPRPRPRPTSVPRP | 0.0631 |
| RRIRFRPPRLPRPRPRPFLAPRP | -0.486 |
| RRIRCRPPRLPRPRPRPMYAPRP | 0.0401 |
| RRIRNRPPRLPRPRPRPRIDPRP | -0.0916 |
| RRIRRRPPRLPRPRPRPIAGPRP | -0.12 |
| RRIRTRPPRLPRPRPRPYWQPRP | -0.435 |
| RRIRMRPPRLPRPRPRPDIFPRP | 0.118 |
| RRIRDRPPRLPRPRPRPSCDPRP | -0.0948 |
| RRIRHRPPRLPRPRPRPQQNPRP | -0.0705 |
| RRIRQRPPRLPRPRPRPSQCPRP | -0.0618 |
| RRIRHRPPRLPRPRPRPFKQPRP | -0.0287 |
| RRIRKRPPRLPRPRPRPPDRPRP | 0.862 |
| RRIRNRPPRLPRPRPRPWRWPRP | 0.0867 |
